Laboratory results from article PMC5457524, “An engineered high affinity Fbs1 carbohydrate binding protein for selective capture of N-glycans and N-glycopeptides” (Nature Communications, 2017).
No end group written: not given here. TMR = tetramethylrhodamine

T1: fetuin (UniProt P12763 19-359, sialylated complex N-linked glycans)
T1 construct: fetuin; Denatured by boiling in Rapid PNGase F buffer, or on Affi-Gel 15 beads with 6 M guanidine-HCl; also called sialylated fetuin; fetuin beads; source: bought: New England Biolabs; denatured before the assay
T1 sequence (looked up): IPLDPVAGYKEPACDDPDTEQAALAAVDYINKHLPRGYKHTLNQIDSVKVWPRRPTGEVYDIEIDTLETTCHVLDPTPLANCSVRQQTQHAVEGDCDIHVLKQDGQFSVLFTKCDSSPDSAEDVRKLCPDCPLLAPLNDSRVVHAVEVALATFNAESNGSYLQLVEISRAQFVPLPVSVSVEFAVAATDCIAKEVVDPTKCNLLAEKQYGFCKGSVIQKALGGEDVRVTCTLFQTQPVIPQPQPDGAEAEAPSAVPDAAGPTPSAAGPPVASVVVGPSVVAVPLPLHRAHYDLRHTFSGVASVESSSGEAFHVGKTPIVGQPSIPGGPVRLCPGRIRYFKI

T2: SNAP-Fbs1 fusion protein (wild-type human Fbs1 sugar-binding domain, residues 92-296) (human, UniProt Q9UK22 92-296)
T2 construct: Immobilised covalently through the SNAP tag on benzylguanine (BG) agarose beads in the bead assays; also called wt Fbs1; Fbs1 beads; source: NEB Express E. coli, purified (for Fbs1 beads and ITC); E. coli cell lysate (fetuin or RNase B bead pulldown); not shown: SNAP tag, N-terminal, kept
T2 sequence (looked up): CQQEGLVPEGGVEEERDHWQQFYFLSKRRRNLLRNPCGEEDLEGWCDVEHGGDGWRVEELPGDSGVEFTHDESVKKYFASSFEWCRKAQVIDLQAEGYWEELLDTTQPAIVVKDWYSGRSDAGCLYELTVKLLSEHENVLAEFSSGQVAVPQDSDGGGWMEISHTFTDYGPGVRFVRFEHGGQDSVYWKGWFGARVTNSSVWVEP

B1: SGP-TMR without sialic acids and galactose (peptide)
peptide: K(TMR)VANK(TMR)T
modifications: not fully specified (residue 4)
notes: peptide of SGP; also called glycopeptide 3; source: SGP-TMR trimmed with α2-3,6,8 Neuraminidase and β1-4 Galactosidase S
B2: SNAP-Fbs1 GYR variant (S155G, F173Y, E174R) (designed binder)
chain: CQQEGLVPEGGVEEERDHWQQFYFLSKRRRNLLRNPCGEEDLEGWCDVEHGGDGWRVEELPGDGGVEFTHDESVKKYFASSYRWCRKAQVIDLQAEGYWEELLDTTQPAIVVKDWYSGRSDAGCLYELTVKLLSEHENVLAEFSSGQVAVPQDSDGGGWMEISHTFTDYGPGVRFVRFEHGGQDSVYWKGWFGARVTNSSVWVEP
notes: numbered on the full-length human protein; source: E. coli, purified (for beads and N-glyco-FASP); E. coli cell lysate (fetuin bead pulldown); not shown: SNAP tag, N-terminal, kept
B3: SNAP-Fbs1 S155G mutant (domain or fragment, human, UniProt Q9UK22 92-296, looked up)
chain: CQQEGLVPEGGVEEERDHWQQFYFLSKRRRNLLRNPCGEEDLEGWCDVEHGGDGWRVEELPGDGGVEFTHDESVKKYFASSFEWCRKAQVIDLQAEGYWEELLDTTQPAIVVKDWYSGRSDAGCLYELTVKLLSEHENVLAEFSSGQVAVPQDSDGGGWMEISHTFTDYGPGVRFVRFEHGGQDSVYWKGWFGARVTNSSVWVEP
notes: numbered on the full-length human protein; source: E. coli cell lysate; not shown: SNAP tag, N-terminal, kept
B4: SNAP-Fbs1 S155A mutant (domain or fragment, human, UniProt Q9UK22 92-296, looked up)
chain: CQQEGLVPEGGVEEERDHWQQFYFLSKRRRNLLRNPCGEEDLEGWCDVEHGGDGWRVEELPGDAGVEFTHDESVKKYFASSFEWCRKAQVIDLQAEGYWEELLDTTQPAIVVKDWYSGRSDAGCLYELTVKLLSEHENVLAEFSSGQVAVPQDSDGGGWMEISHTFTDYGPGVRFVRFEHGGQDSVYWKGWFGARVTNSSVWVEP
notes: as for B3
B5: SNAP-Fbs1 PPRYR variant (combination of PPR and YR) (designed binder)
chain: CQQEGLVPEGGVEEERDHWQQFYFLSKRRRNLLRNPCGEEDLEGWCDVEHGGDGWRVEELPGPPRVEFTHDESVKKYFASSYRWCRKAQVIDLQAEGYWEELLDTTQPAIVVKDWYSGRSDAGCLYELTVKLLSEHENVLAEFSSGQVAVPQDSDGGGWMEISHTFTDYGPGVRFVRFEHGGQDSVYWKGWFGARVTNSSVWVEP
notes: numbered on the full-length human protein; source: E. coli, purified (for beads); E. coli cell lysate (fetuin bead pulldown); not shown: SNAP tag, N-terminal, kept
B6: sialylglycopeptide (SGP) (peptide)
peptide: KVAN(bi‑antennary complex N‑glycan, terminal sialic acids)KT
notes: naturally occurring glycopeptide of six amino acids; source: bought: Fushimi Pharmaceutical Co., Ltd
B7: SGP-TMR (SGP labelled with two TMR fluorophores on the lysines) (peptide)
peptide: K(TMR)VAN(bi‑antennary complex N‑glycan, terminal sialic acids)K(TMR)T
notes: peptide of SGP; also called glycopeptide 1
B8: SGP-TMR without sialic acids, galactose and GlcNAc (peptide)
peptide: K(TMR)VAN(N‑glycan pentasaccharide core)K(TMR)T
notes: peptide of SGP; also called glycopeptide 4; source: SGP-TMR trimmed with α2-3,6,8 Neuraminidase, β1-4 Galactosidase S and β-N-Acetylglucosaminidase S
B9: RNase B (natural protein, UniProt P61823 27-150, looked up)
chain: KETAAAKFERQHMDSSTSAASSSNYCNQMMKSRNLTKDRCKPVNTFVHESLADVQAVCSQKNVACKNGQTNCYQSYSTMSITDCRETGSSKYPNCAYKTTQANKHIIVACEGNPYVPVHFDASV
modifications: a single site modified by a variety of high-mannose N-glycans
notes: RNase B, the N-glycosylated form of pancreatic ribonuclease; Denatured by boiling (SDS/DTT or Rapid PNGase F buffer), or on Affi-Gel 10 beads with 6 M guanidine-HCl; source: bought: New England Biolabs; denatured before the assay

Experiments:
[1] = molecular target: B2; test: pull-down; wt or GYR SNAP-Fbs1 on BG beads; TMR-labelled glycopeptides; 4 °C, 1 h; bound amount from the TMR fluorescence left in the supernatant, given as recovery percentage; low salt (50 mM NaCl or 50 mM ammonium acetate pH 7.5) or high salt (2 M NaCl); settings: both partners purified
[2] = molecular target: T1, fetuin; test: pull-down; fetuin (Affi-Gel 15) or RNase B (Affi-Gel 10) beads, denatured with 6 M guanidine-HCl; E. coli cell lysate with wt or mutant SNAP-Fbs1; 20 mM Tris.HCl pH 7.5, 1 mM EDTA, 50 mM NaCl (low salt) or 2 M NaCl (high salt), 30% Protein-Free Blocking buffer; 4 °C, 1 h; SDS-PAGE, ImageJ; settings: one partner purified
[3] = molecular target: B2; test: affinity purification with mass spectrometry; wt Fbs1 or Fbs1 GYR enrichment from a tryptic digest of RNase B spiked with SGP and SGP-TMR; low salt (50 mM ammonium acetate, pH7.5); LC-MS, SGP-TMR by fluorescence; settings: both partners purified
[4] = molecular target: T2, SNAP-Fbs1 fusion protein (wild-type …); test: ITC; 270 μM SGP injected into 27 μM SNAP-Fbs1; 20 mM Tris.HCl pH 7.5, 1 mM EDTA, 2 M NaCl (high salt); single site binding model; settings: both partners purified
[5] = molecular target: T2, SNAP-Fbs1 fusion protein (wild-type …); test: ITC; 270 μM SGP injected into 27 μM SNAP-Fbs1; 20 mM Tris.HCl pH 7.5, 1 mM EDTA, 50 mM NaCl (low salt); single site binding model; settings: both partners purified
[6] = molecular target: T2, SNAP-Fbs1 fusion protein (wild-type …); test: pull-down; wt or GYR SNAP-Fbs1 on BG beads; TMR-labelled glycopeptides; 4 °C, 1 h; bound amount from the TMR fluorescence left in the supernatant, given as recovery percentage; low salt (50 mM NaCl or 50 mM ammonium acetate pH 7.5) or high salt (2 M NaCl); settings: both partners purified
[7] = molecular target: B2; test: pull-down; wt, GYR or PPRYR SNAP-Fbs1 on BG beads; mixture of denatured fetuin and RNase B; low salt (50 mM ammonium acetate pH 7.5 named for Fig. 4a); 4 °C, 1 h; SDS-PAGE; settings: both partners purified

Binder	binding result [1]	fold change of the pulled-down amount against wt Fbs1 [2]	other results
B1	binds	–	–
B2	–	≥ 3.5 fold	–
B3	–	2 fold	–
B4	–	1.5 fold	–
B5	–	≥ 3.5 fold	–
B6	–	–	binding result [3]: binds; Kd [4]: 1400 ± 40 nM; Kd [5]: 3000 nM
B7	binds	–	–
B8	binds	–	fold improvement in recovery (against untrimmed SGP-TMR) [6]: ≥ 3 fold
B9	–	–	binding result [7]: binds
